Like-named read-outs stand apart in the source and are kept apart here.
Tests used:
[1] = molecular target: T1, human adenosine A2A receptor (A2aR) (human, UniProt P29274 1-412); experiment: flow cytometry on PBMC, donor human 1, isotype control
[2] = molecular target: cynomolgus adenosine A2A receptor (A2aR) (cynomolgus); experiment: flow cytometry on PBMC, donor Cynomolgus 2, isotype control
[3] = molecular target: cynomolgus adenosine A2A receptor (A2aR) (cynomolgus); experiment: flow cytometry on PBMC, donor Cynomolgus 1, isotype control
[4] = molecular target: T1, human adenosine A2A receptor (A2aR); experiment: flow cytometry on PBMC, donor human 2, isotype control
[5] = molecular target: T1, human adenosine A2A receptor (A2aR); experiment: cell-based or functional assay
[6] = molecular target: cynomolgus adenosine A2A receptor (A2aR) (cynomolgus); experiment: flow cytometry on PBMC, donor Cynomolgus 1
[7] = molecular target: T1, human adenosine A2A receptor (A2aR); experiment: flow cytometry titration, HEK293-hA2aR cells, purified antibody
[8] = molecular target: T1, human adenosine A2A receptor (A2aR); experiment: flow cytometry, HEK293-hA2aR cells, supernatant 1 ug/ml
[9] = molecular target: T1, human adenosine A2A receptor (A2aR); experiment: cell-based or functional assay; remark: listed apart in the source
[10] = molecular target: cynomolgus adenosine A2A receptor (A2aR) (cynomolgus); experiment: flow cytometry on PBMC, donor Cynomolgus 2
[11] = molecular target: T1, human adenosine A2A receptor (A2aR); experiment: cell-based or functional assay; remark: listed apart in the source
[12] = molecular target: T1, human adenosine A2A receptor (A2aR); experiment: flow cytometry, HEK293-hA2aR cells, supernatant 1 ug/ml; remark: listed apart in the source

T1 sequence (P29274 whole entry): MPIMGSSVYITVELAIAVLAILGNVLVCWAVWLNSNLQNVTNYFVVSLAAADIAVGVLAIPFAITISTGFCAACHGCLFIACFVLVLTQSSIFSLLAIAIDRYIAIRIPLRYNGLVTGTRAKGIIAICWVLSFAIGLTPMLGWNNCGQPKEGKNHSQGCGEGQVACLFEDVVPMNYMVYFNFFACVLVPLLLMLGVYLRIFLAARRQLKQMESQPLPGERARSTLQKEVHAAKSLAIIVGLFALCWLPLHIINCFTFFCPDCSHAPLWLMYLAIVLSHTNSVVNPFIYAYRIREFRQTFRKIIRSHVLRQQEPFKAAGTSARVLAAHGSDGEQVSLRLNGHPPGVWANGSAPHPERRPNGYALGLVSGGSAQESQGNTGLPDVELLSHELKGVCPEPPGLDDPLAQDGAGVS

Anti-HEL isotype control (BioIntron) (antibody)
% of A2aR+ CD4+ T cells [1]: 0.083%
% of A2aR+ CD8+ T cells [1]: 0.005%
% of A2aR+ NK cells [1]: 0.21%
% of A2aR+ NKT cells [1]: 0.11%
% of A2aR+ CD4+ T cells [2]: 0.099%
% of A2aR+ CD8+ T cells [2]: 0.007%
% of A2aR+ NK cells [2]: 0.42%
% of A2aR+ NKT cells [2]: 0.045%
% of A2aR+ CD4+ T cells [3]: 0.086%
% of A2aR+ CD8+ T cells [3]: 0.009%
% of A2aR+ NK cells [3]: 0.46%
% of A2aR+ NKT cells [3]: 0.22%
% of A2aR+ CD4+ T cells [4]: 0.012%
% of A2aR+ CD8+ T cells [4]: 0.002%
% of A2aR+ NK cells [4]: 0.029%
% of A2aR+ NKT cells [4]: 0.058%

B1: Hu3F6-H3/Hu3F6-L5 (antibody, human IgG1, V domains shown)
VH: EVQLVQSGAEVKKPGASVKVSCKTSGFAFTSYWMNWVRQAPGQGLEWIGRIDPSDSEAHYHHKFWGRATLTVDTSSSTVYMELSSLRSEDTAVYYCLRSLYGKGDYWGHGTTVTVSS
VL: DVVMTQTPLSLSVTPGQPASISCRSSQSLVHRNGNTYLEWYLQKPGQSPQLLIYKVSNRFSGVPDRFSGSGSGTDFTLKISRVEAEDVGVYYCYQGSHVPLTFGGGTKVEIK
notes: Human IgG1 FES (L234F, L235E, P331S) and human Ig kappa constant domains; also called Hu3F6 VH3/VL5; Hu3F6-VH3/VL5
IC50 of blocking activity, cAMP-Glo, 300 nM NECA, HEK293-hA2aR cells, supernatant [5]: 5.3 nM
% of A2aR+ CD4+ T cells [6]: 1.65%
% of A2aR+ CD8+ T cells [6]: 0.05%
% of A2aR+ NK cells [6]: 6.52%
% of A2aR+ NKT cells [6]: 1.06%
EC50 [7]: 0.57 nM
MFI [8]: 1900 MFI
IC50 of blocking activity, cAMP-Glo, 1.25 uM NECA, HEK293-hA2aR cells, purified antibody [9]: 0.8 nM
IC50 of blocking activity, cAMP-Glo, 5 uM Adenosine, HEK293-hA2aR cells, purified antibody [9]: 0.6 nM
% of A2aR+ CD4+ T cells [10]: 1.2%
% of A2aR+ CD8+ T cells [10]: 0.11%
% of A2aR+ NK cells [10]: 2.07%
% of A2aR+ NKT cells [10]: 0.45%

B2: Hu3F6-H5/Hu3F6-L8 (antibody, human IgG1, V domains shown)
VH: EVQLVQSGAEVKKPGASVKVSCKTSGFAFTSYWMNWVRQAPGQGLEWIGRIDPSDSEAHYAHKFWGRATLTVDKSSSTVYMELSSLRSEDTAVYYCLRSLYGKGDYWGHGTTVTVSS
VL: DVVMTQSPLSLPVTPGEPASISCRSSQSLVHRNGNTYLEWYLQKPGQSPQLLIYKVSNRFSGVPDRFSGSGSGTDFTLKISRVEAEDVGVYYCYQGSHVPLTFGGGTKVEIK
notes: Human IgG1 FES (L234F, L235E, P331S) and human Ig kappa constant domains; also called Hu3F6 VH5/VL8
IC50 of blocking activity, cAMP-Glo, 300 nM NECA, HEK293-hA2aR cells, supernatant [5]: 1.1 nM
EC50 [7]: 0.59 nM
MFI [8]: 1890 MFI

B3: Hu3F6-H5/Hu3F6-L5 (antibody, human IgG1, V domains shown)
VH: EVQLVQSGAEVKKPGASVKVSCKTSGFAFTSYWMNWVRQAPGQGLEWIGRIDPSDSEAHYAHKFWGRATLTVDKSSSTVYMELSSLRSEDTAVYYCLRSLYGKGDYWGHGTTVTVSS
VL: DVVMTQTPLSLSVTPGQPASISCRSSQSLVHRNGNTYLEWYLQKPGQSPQLLIYKVSNRFSGVPDRFSGSGSGTDFTLKISRVEAEDVGVYYCYQGSHVPLTFGGGTKVEIK
notes: Human IgG1 FES (L234F, L235E, P331S) and human Ig kappa constant domains; also called Hu3F6 VH5/VL5; Hu3F6-VH5/VL5
IC50 of blocking activity, cAMP-Glo, 300 nM NECA, HEK293-hA2aR cells, supernatant [5]: 0.9 nM
% of A2aR+ CD4+ T cells [6]: 4.76%
% of A2aR+ CD8+ T cells [6]: 0.15%
% of A2aR+ NK cells [6]: 5.71%
% of A2aR+ NKT cells [6]: 4.14%
EC50 [7]: 0.59 nM
MFI [8]: 1850 MFI
IC50 of blocking activity, cAMP-Glo, 1.25 uM NECA, HEK293-hA2aR cells, purified antibody [9]: 0.6 nM
IC50 of blocking activity, cAMP-Glo, 5 uM Adenosine, HEK293-hA2aR cells, purified antibody [9]: 0.8 nM
% of A2aR+ CD4+ T cells [10]: 10.6%
% of A2aR+ CD8+ T cells [10]: 0.41%
% of A2aR+ NK cells [10]: 2.92%
% of A2aR+ NKT cells [10]: 4.28%

B4: Hu3F6-H3/Hu3F6-L3 (antibody, human IgG1, V domains shown)
VH: EVQLVQSGAEVKKPGASVKVSCKTSGFAFTSYWMNWVRQAPGQGLEWIGRIDPSDSEAHYHHKFWGRATLTVDTSSSTVYMELSSLRSEDTAVYYCLRSLYGKGDYWGHGTTVTVSS
VL: DVVMTQSPLSLPVTLGQPASISCRSSQSLVHRNGNTYLEWYQQRPGQSPRLLIYKVSNRFSGVPDRFSGSGSGTDFTLKISRVEAEDVGVYYCYQGSHVPLTFGGGTKVEIK
notes: Human IgG1 FES (L234F, L235E, P331S) and human Ig kappa constant domains; also called Hu3F6 VH3/VL3
IC50 of blocking activity, cAMP-Glo, 300 nM NECA, HEK293-hA2aR cells, supernatant [5]: 2 nM
EC50 [7]: 0.64 nM
MFI [8]: 1930 MFI

B5: Hu3F6-H3/Hu3F6-L4 (antibody, human IgG1, V domains shown)
VH: EVQLVQSGAEVKKPGASVKVSCKTSGFAFTSYWMNWVRQAPGQGLEWIGRIDPSDSEAHYHHKFWGRATLTVDTSSSTVYMELSSLRSEDTAVYYCLRSLYGKGDYWGHGTTVTVSS
VL: DIVMTQTPLSLSVTPGQPASISCRSSQSLVHRNGNTYLEWYLQKPGQSPQLLIYKVSNRFSGVPDRFSGSGSGTDFTLKISRVEAEDVGVYYCYQGSHVPLTFGGGTKVEIK
notes: Human IgG1 FES (L234F, L235E, P331S) and human Ig kappa constant domains; also called Hu3F6 VH3/VL4
IC50 of blocking activity, cAMP-Glo, 300 nM NECA, HEK293-hA2aR cells, supernatant [5]: 19.5 nM
EC50 [7]: 0.68 nM
MFI [8]: 1840 MFI

B6: Hu3F8-H6/Hu3F8-L3 (antibody, human IgG1, V domains shown)
VH: EVQLVQSGAEVKKPGESLRISCKASGFTFTRYWMNWVRQMPGKGLEWIGRIDPSDSETHYNHKFWGHATLSVDKSSSTVYLQWSSLKASDTAMYYCLRSLYGKGDYWGQGTTVTVSS
VL: DVVMTQSPLSLPVTLGQPASISCRSSQSIVHSNGNTYLEWYQQRPGQSPRLLIYKVSNRFSGVPDRFSGSGSGTDFTLKISRVEAEDVGVYYCYQGSHVPLTFGGGTKVEIK
notes: Human IgG1 FES (L234F, L235E, P331S) and human Ig kappa constant domains; also called Hu3F8 VH6/VL3
IC50 of blocking activity, cAMP-Glo, 300 nM NECA, HEK293-hA2aR cells, supernatant [11]: 1.2 nM
EC50 [7]: 0.59 nM
MFI [12]: 1880 MFI

B7: Hu3F8-H6/Hu3F8-L5 (antibody, human IgG1, V domains shown)
VH: EVQLVQSGAEVKKPGESLRISCKASGFTFTRYWMNWVRQMPGKGLEWIGRIDPSDSETHYNHKFWGHATLSVDKSSSTVYLQWSSLKASDTAMYYCLRSLYGKGDYWGQGTTVTVSS
VL: DVVMTQSPLSLPVTPGEPASISCRSSQSIVHSNGNTYLEWYLQKPGQSPQLLIYKVSNRFSGVPDRFSGSGSGTDFTLKISRVEAEDVGVYYCYQGSHVPLTFGGGTKVEIK
notes: Human IgG1 FES (L234F, L235E, P331S) and human Ig kappa constant domains; also called Hu3F8 VH6/VL5
IC50 of blocking activity, cAMP-Glo, 300 nM NECA, HEK293-hA2aR cells, supernatant [11]: 1.5 nM
EC50 [7]: 0.65 nM
MFI [12]: 1900 MFI

B8: Hu3F6-H5/Hu3F6-L3 (antibody, human IgG1, V domains shown)
VH: EVQLVQSGAEVKKPGASVKVSCKTSGFAFTSYWMNWVRQAPGQGLEWIGRIDPSDSEAHYAHKFWGRATLTVDKSSSTVYMELSSLRSEDTAVYYCLRSLYGKGDYWGHGTTVTVSS
VL: DVVMTQSPLSLPVTLGQPASISCRSSQSLVHRNGNTYLEWYQQRPGQSPRLLIYKVSNRFSGVPDRFSGSGSGTDFTLKISRVEAEDVGVYYCYQGSHVPLTFGGGTKVEIK
notes: Human IgG1 FES (L234F, L235E, P331S) and human Ig kappa constant domains; also called Hu3F6 VH5/VL3
IC50 of blocking activity, cAMP-Glo, 300 nM NECA, HEK293-hA2aR cells, supernatant [5]: 1.3 nM
EC50 [7]: 0.5 nM
MFI [8]: 2090 MFI

B9: Hu3F6-H5/Hu3F6-L4 (antibody, human IgG1, V domains shown)
VH: EVQLVQSGAEVKKPGASVKVSCKTSGFAFTSYWMNWVRQAPGQGLEWIGRIDPSDSEAHYAHKFWGRATLTVDKSSSTVYMELSSLRSEDTAVYYCLRSLYGKGDYWGHGTTVTVSS
VL: DIVMTQTPLSLSVTPGQPASISCRSSQSLVHRNGNTYLEWYLQKPGQSPQLLIYKVSNRFSGVPDRFSGSGSGTDFTLKISRVEAEDVGVYYCYQGSHVPLTFGGGTKVEIK
notes: Human IgG1 FES (L234F, L235E, P331S) and human Ig kappa constant domains; also called Hu3F6 VH5/VL4
IC50 of blocking activity, cAMP-Glo, 300 nM NECA, HEK293-hA2aR cells, supernatant [5]: 7.8 nM
EC50 [7]: 0.52 nM
MFI [8]: 1920 MFI

From patent US20250206828A1, “ANTI-ADENOSINE RECEPTOR (A2aR) ANTIBODIES AND THE USE THEREOF” (Adept Therapeutics Inc., priority 2022, published 2025)
